Laboratory results published in the domain aggregation screens of Martell et al. (2025).

Experiment: soluble fraction after stress (log2 fold change); higher = more stays soluble; pooled small domains, quantitative proteomics
Conditions: stress: pH 4
Summary of the method: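 Small protein domains from pooled custom libraries were exposed to pH 4, then quantified with high-throughput quantitative proteomics. The fold change in how much of each domain remains soluble is read as aggregation propensity. It is given as log2, with higher values meaning more stayed soluble.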

HMLAMHVVESVGGAEQFTKLQNFAKTQNADYQKMWNDTMNSGNVLAIKTMLSGIQSDMIAVQ
soluble fraction (log2): -0.466

HMLAQDVIVKQDGGTILSKVLEIGTQEIAYKKWNSQDGPVYKIAKDQVLSVNYQNGEVDRFA
soluble fraction (log2): -0.233

HMLAQISDEGAIGAVVARVLDAHPNEVARYHAGEEKVAKFLMGAAMRELRGKGDPAVVQRLLSEGLDARRV
soluble fraction (log2): 0.294

HMLARPTANELVKEMQRRAKEQRTELPPDAARDLLERSGQDQFLLGNEVDKLAALSGYTTITREMVAQAGT
soluble fraction (log2): 0.0328

HMLAVPADFAEKLQSLRSQLASDDLDASDAFGRLQPFIKALYPAQLEALRKAVDDFDFVEATRLIDQLPQ
soluble fraction (log2): -0.954

HMLAYQRTYEKILEDLRNDVYPVNSLLPPEPKLEEIYHVSRTTVRRAIAQLADEGYVKVKQGYGTVVLKN
soluble fraction (log2): 0.22

HMLDEPPVSQTLTTYDREHMALYLRLLDSARDGADWREAVQILFGLDPTRDPLRSRHVHDTHLARARWM
soluble fraction (log2): -0.452

HMLDFGQEDSEAVSEIILVLGRYWMDFSHKKYPEAEGSALRHKGISHIFTVLKPYLTSATAQLIEQRLQQ
soluble fraction (log2): -0.398

HMLDIQKKGENIAYIEGAGDVIPESLKQIGYHVVTIAPKDINAETLSRFDAVVVGIRAYNTVEDL
soluble fraction (log2): -0.241

HMLDKIRTYIDNSFTGVNETKKVKELKDELFENLKEKYNDQIQDGKTEQEAYNSVISGIGDLSELIESVK
soluble fraction (log2): -0.0804

HMLDKKKHLEQGRKIIEDQLAKYKIQPSFDTLKKLSAYYGLNNKEQLYAQVGMGFLELENLDEILQ
soluble fraction (log2): -0.347

HMLDLPVRTINGRQYYYYEVRNRETVYGLSKRLGVTREEIVRYNPSMADGLKRGAILYFPVDEFSDRI
soluble fraction (log2): -0.0139

HMLDLSDFEVVRDLYLSEQIWNVGDLIIARSKKDDTYKAWEIIRKGTNYVTGIDESHKVEKIWLHDILI
soluble fraction (log2): -1.1

HMLDSPHDDLNRKIVQMLQNDGRLPYKDIAEVLSVSEGTVRNRVQRMRDAGMLNIVALIDPMAI
soluble fraction (log2): -0.498

HMLDTPLTARELDVLYLMRQRMSAKEIAKQLGIATMTVNRHAANLYRKLGVNTRWDAVYRAEEVGILPP
soluble fraction (log2): -0.592

HMLDVNLIFSRPGFSLSAAFTLHAGGITVLRGDSGSGKTTLADLLSGAIAPQKGRILSDGDIWFDAASGIN
soluble fraction (log2): -0.163

HMLDYITLSPQELGKLLSAGNGDAAMVYLYMKATGDVTLKQAETQLGMTNQNLAWAESLLKRLGLMD
soluble fraction (log2): -0.501

HMLDYKSALQELLQAQRRSRPRYEVISTEGPDHERVFEVAVWLDNEELGRGKGRSKREAEHQAAQAALTQL
soluble fraction (log2): -0.626

HMLDYQLQVFKDTLEANRKHRGQKIVFIHGKGEGVLRRALIHALNYQYKKFTYQDASFREYGYGATQVTI
soluble fraction (log2): -0.0148

HMLEEIDYPEEQLQLLFAWSRDHVQSTPPGLPVVDDHVWHILVRGYGATDQRTEAFALLASYAGFP
soluble fraction (log2): -0.722

HMLEIDPPVDEISVSRKAFYEAAGYKVNPYTHIPPRYRKEFEEHSFVVMSWPRELPEETYRKFDRYLRDV
soluble fraction (log2): -0.253

HMLEIRGFTVLLSDRGIVGIIEEIIQNPGQDLLRILSPEKREILVPLHSDLITGINKKKKTITMNLPDGL
soluble fraction (log2): -0.775

HMLELTGEEEFVIRTLTRQGDLHINALVVETDIPINRMISLLFELEMKGVVKALVGGVYHLLG
soluble fraction (log2): -1.58

HMLELTVSDKMARLMAWRNRRRVNLSDQELHRIAAAPKQSPESILKMLPGFLQDSVPEIWAELTGGRP
soluble fraction (log2): -0.0678

HMLENSLDHIEGIGPKTKDTLLTYFKSVSKIKSANPSILAELIGAAKTKILLAAFEKEKTTS
soluble fraction (log2): 0.17

HMLENYEGFKQKILKLTGIDLSSYKERQMRRRIDSLIHRNNYDDYDEYFKALTQNSNLYDEFINYLTI
soluble fraction (log2): -0.424

HMLEQEDMYGYQMIETLRERSEHSFDLKAGTLYPLLHALEQKGLITARDEASAAGRPRRYYHLTDAG
soluble fraction (log2): -1.05

HMLERPLFTPEQYGRFRGKEARIRLSNPVEGRKTLTGSIVEATEERIVVFVEEEEREVTVPFQWIKSGNL
soluble fraction (log2): -0.523

HMLESVMHSRIAEIISREGTAPAHMSMQEKIRVVHKLDADGILMMKGAVAEIADQLSVSVPTIYRYLNKPQ
soluble fraction (log2): ≥ 0.43

HMLETILQIGKDGVGENLVKQVNDALEARELIKGRVLDNNLELDARTAAQILAKATRSEVVQVIGTKFV
soluble fraction (log2): 0.0332

HMLEVTQTDVKMYTTSGTPVYAAPDLNSAIVVYLERFVNVTVTGITDNGFYRVNLNGDYYIPGPYLISSV
soluble fraction (log2): -0.759

HMLEYIEPRTAVQIHGIKAKPELNGKRGMVMGYAPERMRYRVRIDVGEGTGGKESEEVYLKPENVIAVK
soluble fraction (log2): 0.101

HMLFKGDTREENVILEFLSKNGTTSSDAIIKQTGLSASEFNQAITMLELKGLALNNGGEKWSL
soluble fraction (log2): -0.0366

HMLGDAVLRQVLETIPEDPAVDYLELRRNTGMTEADLDRVLADLENLGVINKKRTVEQVLYWRT
soluble fraction (log2): -1.44

HMLGDAWSMLILRDAHSGFSRFDQFRKSLGIAPTMLTKRLSVLVDEGLLEKRQYSEHPPREEYVLTQAGQD
soluble fraction (log2): 0.149

HMLGERIRTLRKEIGMSVTELARRVKTSPSHISEIERGEKMPSLNLLVKIAKELKTSIDYLTGLVG
soluble fraction (log2): -0.487

HMLGNIERALEMLQEVAATMDPVDIRLLLSMAQVESVRGNTEAAVKLIDEALVIDPGNERIEQIRLRVL
soluble fraction (log2): -0.869

HMLGRPDMSPIPEGSRNNDLHAWGFGRLANHPDNKRQIEADFFERGRISGLGDAEIRASWNSILRQLGHQ
soluble fraction (log2): 0.276

HMLGSVRTIRQVLDDGRLIVADGGGNPSVIRRSGALAHETFANGQRVIVDPSGRLALELLPD
soluble fraction (log2): 0.315

HMLGVLEYYNNGQKKSERTFKGGMQIYTEWYENGQMKAEERKWIDQLGSLKFLNLLSTEWDENGNEISRME
soluble fraction (log2): -1.28

HMLGYGEQEREAQKYLEMHTAFQADPSLQKMYLPENQYALISKVMEMTGIKNVKSYLTPPNEL
soluble fraction (log2): -0.236

HMLHVRSALMSELDGIEGIGEKRKRLLFDAFITRDAIAAATLEQLMAVKGMNRPSAEAVHKHFHG
soluble fraction (log2): 0.203

HMLIELKIPSEWAGKSLHTLNLRQNYNVNVIGFRDEKSGKLNTHFDPSKKLPDEGIILVVADNRTLEKF
soluble fraction (log2): -0.451

HMLIIDLPDFTNKKLSELQQWADANQITLKIVEKDVSSKPYDTILEQTPAKNKYEKIVKGSTMTVTVNIK
soluble fraction (log2): -0.272

HMLINFPNKLKRLRLANNLTQQELANILETTKQAVSSYESGKSTPSLNSLIKLSEHFNISLDSLVFD
soluble fraction (log2): -0.446

HMLINIKTNSAVNVRSGPGMGFEVVNTYPSGYILQAKEMQKDGGDNVWYKVKDGWLSANYTIDI
soluble fraction (log2): 0.394

HMLINPLDILRNFNLSLYDDSRDSASNKEIDEIFESIKTNNSHIFSTLKAYRIPLPIASLIIKKIIKITLE
soluble fraction (log2): -0.882

HMLISDENMLRDLVQAVLDENPKSVSDYKSGKTKAFGFLVGQTMKAVKGQADPMLVNKILTELLN
soluble fraction (log2): -0.0698

HMLISYRVDALANEAGLSVDTIRYYQKLGILDPPKRTGRHSEYSPDHLERLIEIRRLADAGLTLSQISEI
soluble fraction (log2): -2.33

HMLKAKKIPVSDLEKFKGIVAEDVVSKAKALILPRGSNLSWLSNVAKKNLIAKLKAEGIEYISVYSS
soluble fraction (log2): 0.0669

HMLKDGPIGAYADSVIRDIIEKMERFSKEHINVDMLKIHEKIMLIDEPIIRMALLDEFHRVSHDN
soluble fraction (log2): -1.2

HMLKEKETRALANFTNKFFGLDISEDLKPIALSELSKFKKTHKISNLEEFINSFQYDFQNEKILSLLDIFL
soluble fraction (log2): -0.879

HMLKFPIGTHVGKKKPSANLSLPNKHGVVIGHGERRNAKGAIMRFYIVETTHSSRPEEWAPGITYPL
soluble fraction (log2): -0.275

HMLKHEEIQEYIKEQINSGTWKPKAKLPSLRDMSELFSTSIGTVLTAYSALEKKHIIYSIPRSGYYVLG
soluble fraction (log2): -0.334

HMLKLEDIKKDAQVKGIVDGQIVRIVTVEPIGDHALTVYYKDHQGQFAERMLFRSDELNLELATA
soluble fraction (log2): -0.64
